This note sets out measurements from doi:10.1101/477745, “The (p)ppGpp-binding GTPase Era promotes rRNA processing and cold shock survival in Staphylococcus aureus” (bioRxiv, 2019).

Experiment [1] addresses T1, Era fused to SB (small bit of luciferase) (S. aureus, UniProt Q2FGF6 1-299).
T1 construct: GTPase Era, Staphylococcus aureus; For the Era-Era pair the second copy of Era was fused to the large bit (LB); also called EraSB; full-length Era; source: S. aureus LAC*, expressed from pAP118 with Atet, in cells
T1 sequence (looked up): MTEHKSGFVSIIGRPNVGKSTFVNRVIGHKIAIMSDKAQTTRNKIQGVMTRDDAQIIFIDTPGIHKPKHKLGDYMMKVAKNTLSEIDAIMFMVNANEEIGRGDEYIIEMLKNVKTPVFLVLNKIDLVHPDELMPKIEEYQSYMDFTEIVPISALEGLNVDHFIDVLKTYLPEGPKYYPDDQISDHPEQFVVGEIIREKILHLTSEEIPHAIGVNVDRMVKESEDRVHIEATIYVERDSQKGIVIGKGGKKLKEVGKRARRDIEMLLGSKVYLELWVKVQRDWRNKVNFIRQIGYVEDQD
Put plainly: split reporter (BiFC, NanoBiT); split luciferase (SB and LB fusions from pAP118) in S. aureus LAC*; 100 ng/ml Atet for 90 min, normalised to OD600 0.1, Nano-Glo; luminescence relative to a control with one fusion only. The settings on record: partners not purified.

The target in experiment [2] is T2, GST-CshA (S. aureus, UniProt Q2FF45 1-506).
T2 construct: DEAD-box RNA helicase CshA, Staphylococcus aureus; also called GST-tagged CshA; not shown: GST, N-terminal, kept
Put plainly: pull-down; 1 uM GST or GST fusion coupled to glutathione beads; incubated with His-tagged protein (printed 1 pM) in 25 mM Tris pH 7.5, 150 mM NaCl, 5 mM MgCl2, 0.5% Triton X-100 at 4°C overnight; eluted with glutathione; blot with anti-His-HRP. The settings on record: both partners purified.

B1: full-length CshA fused to LB (large bit of luciferase) (natural protein, S. aureus, UniProt Q2FF45 1-506, looked up)
chain: MQNFKELGISDNTVQSLESMGFKEPTPIQKDSIPYALQGIDILGQAQTGTGKTGAFGIPLIEKVVGKQGVQSLILAPTRELAMQVAEQLREFSRGQGVQVVTVFGGMPIERQIKALKKGPQIVVGTPGRVIDHLNRRTLKTDGIHTLILDEADEMMNMGFIDDMRFIMDKIPAVQRQTMLFSATMPKAIQALVQQFMKSPKIIKTMNNEMSDPQIEEFYTIVKELEKFDTFTNFLDVHQPELAIVFGRTKRRVDELTSALISKGYKAEGLHGDITQAKRLEVLKKFKNDQINILVATDVAARGLDISGVSHVYNFDIPQDTESYTHRIGRTGRAGKEGIAVTFVNPIEMDYIRQIEDANGRKMSALRPPHRKEVLQAREDDIKEKVENWMSKESESRLKRISTELLNEYNDVDLVAALLQELVEANDEVEVQLTFEKPLSRKGRNGKPSGSRNRNSKRGNPKFDSKSKRSKGYSSKKKSTKKFDRKEKSSGGSRPMKGRTFADHQK
notes: DEAD-box RNA helicase CshA, Staphylococcus aureus, 506 residues by the printed domain limits; also called CshALB; source: S. aureus LAC*, expressed from pAP118 with Atet, in cells
Consider B1, for which the “fold increase in luciferase activity” value in experiment [1] stood at 4 fold.

B2: His-tagged Era (natural protein, S. aureus, UniProt Q2FGF6 1-299, looked up)
chain: T1 sequence (looked up)
notes: GTPase Era, Staphylococcus aureus; also called His-Era; recombinant Era
As for B2, the binding result in experiment [2] is “binds”.
